Molecular target: T1, human CCX CKR with N-terminal Flag epitope, stably expressed on HEK293 cells (human, UniProt Q9NPB9 1-350)
T1 construct: also called HEK293-CCX CKR cells
T1 sequence: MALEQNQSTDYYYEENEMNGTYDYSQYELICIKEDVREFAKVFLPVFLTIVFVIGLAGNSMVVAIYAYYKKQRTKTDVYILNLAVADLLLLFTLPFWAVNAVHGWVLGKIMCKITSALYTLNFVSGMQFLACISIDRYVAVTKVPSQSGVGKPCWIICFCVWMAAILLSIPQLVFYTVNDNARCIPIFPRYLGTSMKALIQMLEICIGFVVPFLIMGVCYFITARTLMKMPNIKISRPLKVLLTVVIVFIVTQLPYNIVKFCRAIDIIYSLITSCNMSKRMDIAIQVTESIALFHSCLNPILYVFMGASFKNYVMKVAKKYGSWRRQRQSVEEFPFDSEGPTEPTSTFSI
Experiment: radioligand binding competition on CCX CKR stable transfectants (similar experiments)

B1: murine CTACK (ligand, UniProt Q9Z1X0 26-120, looked up)
chain: LPLPSSTSCCTQLYRQPLPSRLLRRIVHMELQEADGDCHLQAVVLHLARRSVCVHPQNRSLARWLERQGKRLQGTVPSLNLVLQKKMYSHPQQQN
notes: also called mCTACK; CCL27
  Kd: ~9 nM

Source: patent publication EP1224222B1 (ChemoCentryx, Inc., dated 2010)
